The term koff denotes the first-order rate constant of dissociation. The term Kd denotes the concentration at which binding is half-saturated.

Our source for the koff and Kd values is PMC12371199, “Identification of c‐Met on Tumor Cells as a Novel Receptor for B7‐H3 Entails Implications for Cancer Cell Stemness and Targeted Therapy” (MedComm, 2025).

The target of assay [1] is T1, purified recombinant extracellular domain of c‐Met (from Met1 to Thr932), c‐Met‐his (human, UniProt P08581 25-932).
T1 chain: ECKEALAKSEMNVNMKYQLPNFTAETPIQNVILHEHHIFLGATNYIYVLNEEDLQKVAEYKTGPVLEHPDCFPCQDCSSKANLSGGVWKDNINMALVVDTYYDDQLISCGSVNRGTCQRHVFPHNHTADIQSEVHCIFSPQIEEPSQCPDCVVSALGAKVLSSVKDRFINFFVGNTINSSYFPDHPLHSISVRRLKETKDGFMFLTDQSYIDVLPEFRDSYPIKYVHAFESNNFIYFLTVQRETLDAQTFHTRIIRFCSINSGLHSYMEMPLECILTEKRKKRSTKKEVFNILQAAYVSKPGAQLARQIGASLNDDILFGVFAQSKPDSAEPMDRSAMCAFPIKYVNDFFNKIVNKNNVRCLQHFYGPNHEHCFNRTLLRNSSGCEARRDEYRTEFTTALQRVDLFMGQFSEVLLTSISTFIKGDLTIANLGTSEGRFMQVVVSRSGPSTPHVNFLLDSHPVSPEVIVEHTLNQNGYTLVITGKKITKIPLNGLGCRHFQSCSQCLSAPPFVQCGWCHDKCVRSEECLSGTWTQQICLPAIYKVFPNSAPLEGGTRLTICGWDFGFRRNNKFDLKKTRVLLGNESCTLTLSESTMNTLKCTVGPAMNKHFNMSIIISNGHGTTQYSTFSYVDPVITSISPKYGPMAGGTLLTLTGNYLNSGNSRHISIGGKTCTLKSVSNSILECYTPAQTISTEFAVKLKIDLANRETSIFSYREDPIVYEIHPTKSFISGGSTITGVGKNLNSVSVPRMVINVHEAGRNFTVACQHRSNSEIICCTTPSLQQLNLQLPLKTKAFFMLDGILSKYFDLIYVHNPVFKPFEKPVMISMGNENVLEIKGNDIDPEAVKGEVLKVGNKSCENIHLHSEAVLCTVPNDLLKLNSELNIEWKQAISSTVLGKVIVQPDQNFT
Description: SPR.

The target of assay [2] is T2, purified recombinant extracellular domain of c‐Met (from Met1 to Thr932), c‐Met‐his (human, UniProt P08581 25-932).
T2 construct: signal peptide in the construct; c-Met (hepatocyte growth factor receptor), extracellular domain, Met1 to Thr932; The limits and supplier are told for the SPR; source: bought: Sino Biological (Beijing, China)
Briefly: SPR; Biacore T200; c‐Met‐his immobilised on CM5 chip (10 mM sodium acetate pH 4.5); B7‐H3‐his as analyte in serial doubling concentrations up to 100 µM; 30 µL/min, 25°C; 1:1 model, global fit. As to conditions: both partners purified. (Surface plasmon resonance follows binding to a sensor surface in real time, without labels.)

B1: purified recombinant extracellular domain of B7‐H3 (from Gly27 to Thr461), B7‐H3‐his (domain or fragment, human, UniProt Q5ZPR3 27-461, looked up)
chain: GALEVQVPEDPVVALVGTDATLCCSFSPEPGFSLAQLNLIWQLTDTKQLVHSFAEGQDQGSAYANRTALFPDLLAQGNASLRLQRVRVADEGSFTCFVSIRDFGSAAVSLQVAAPYSKPSMTLEPNKDLRPGDTVTITCSSYQGYPEAEVFWQDGQGVPLTGNVTTSQMANEQGLFDVHSILRVVLGANGTYSCLVRNPVLQQDAHSSVTITPQRSPTGAVEVQVPEDPVVALVGTDATLRCSFSPEPGFSLAQLNLIWQLTDTKQLVHSFTEGRDQGSAYANRTALFPDLLAQGNASLRLQRVRVADEGSFTCFVSIRDFGSAAVSLQVAAPYSKPSMTLEPNKDLRPGDTVTITCSSYRGYPEAEVFWQDGQGVPLTGNVTTSQMANEQGLFDVHSVLRVVLGANGTYSCLVRNPVLQQDAHGSVTITGQPMT
notes: B7-H3 (CD276), human, extracellular domain, Gly27 to Thr461; The limits and supplier are told for the SPR; also called soluble recombinant B7‐H3; source: bought: BioIntron (Taizhou, China)
On to B1, for which the koff in assay [1] was 0.000707 s⁻¹. For the same molecule, the Kd in assay [2] amounted to 1660 nM.
